Data on two molecules can be found in publication PMC3164469 (Molecular Biology of the Cell, 2011).

T1: SMT3–Hairless NTCT fusion protein (residues 232–358) (Drosophila melanogaster, UniProt Q02308 232-358)
T1 sequence: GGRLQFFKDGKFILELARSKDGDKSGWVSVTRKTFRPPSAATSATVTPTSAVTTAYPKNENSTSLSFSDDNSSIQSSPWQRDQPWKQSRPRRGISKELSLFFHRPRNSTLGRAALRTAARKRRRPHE

B1: core Su(H) (amino acids 98–523) (domain or fragment)
chain: not shown
B2: Hairless NT (amino acids 232–269) (domain or fragment)
chain: GGRLQFFKDGKFILELARSKDGDKSGWVSVTRKTFRPP

Test [1] deals with T1, SMT3–Hairless NTCT fusion protein …. Kind of test: ITC.
In test [2] the target is B1. Kind of test: native gel or EMSA.

As usually defined, the stoichiometry N is a count of units in the complex or per binding partner. As for B1, in test [1], the “stoichiometry N” value is 0.9.

As for B2, in test [2], the binding result is “binds”.
